Numbering of substitutions follows the chain as printed. In names and notes the source's numbering stands.
B1: AqpZ-C20S (Escherichia coli aquaporin Z, C20S mutant) (natural protein)
chain: MFRKLAAECFGTFWLVFGGSGSAVLAAGFPELGIGFAGVALAFGLTVLTMAFAVGHISGGHFNPAVTIGLWAGGRFPAKEVVGYVIAQVVGGIVAAALLYLIASGKTGFDAAASGFASNGYGEHSPGGYSMLSALVVELVLSAGFLLVIHGATDKFAPAGFAPIAIGLALTLIHLISIPVTNTSVNPARSTAVAIFQGGWALEQLWFFWVVPIVGGIIGGLIYRTLLEKRD
B2: AqpZ-I176G (in the AqpZ-C20S background) (natural protein, Escherichia coli)
chain: B1 chain with I176G
B3: AqpZ-G144F (in the AqpZ-C20S background) (natural protein, Escherichia coli)
chain: B1 chain with G144F

Legend:
[1] = biological target: the molecule itself; assay: SDS-PAGE and western blot
SEC = biological target: the molecule itself; assay: SEC

Protein | stoichiometry N [1] | stoichiometry N (SEC)
B1 | 4 | –
B2 | – | 4
B3 | – | 4

— article PMC6641176 (ACS Omega, 2017)
